For this test, the target named is AMC008 SOSIP.v4.2 Env (HIV-1 (clade B, isolate AMC008)). Kind of test: mass photometry; AMC008 alone or with one excess Fab, 1:9 molar ratio in PBS, on ice 30 minutes, diluted in PBS; mass increase divided by 55 kDa per Fab.

What is called stoichiometry N is a count of units in the complex or per binding partner.

AMC008 SOSIP.v4.2 Env (complex): the stoichiometry N was found to be 3. In the case of antibody 3BC315 Fab, the stoichiometry N is 2.07 Fab/55 kDa.

As for antibody b12 Fab, the stoichiometry N turned out to be 3.09 Fab/55 kDa.

The values above are taken from publication PMC13168245.
